Data: IntAct's records for PubMed 19703395

B1: Transposon Tn7 transposition protein TnsE (Escherichia coli), P05845 (parent)
chain: MVRLATFNDNVQVVHIGHLFRNSGHKEWRIFVWFNPMQERKWTRFTHLPLLSRAKVVNSTTKQINKADRVIEFEASDLQRAKIIDFPNLSSFASVRNKDGAQSSFIYEAETPYSKTRYHIPQLELARSLFLINSYFCRSCLSSTALQQEFDVQYEVERDHLEIRILPSSSFPKGALEQSAVVQLLVWLFSDQDVMDSYESIFRHYQQNREIKNGVESWCFSFDPPPMQGWKLHVKGRSSNEDKDYLVEEIVGLEINAMLPSTTAISHASFQEKEAGDGSTQHIAVSTESVVDDEHLQLDDEETANIDTDTRVIEAEPTWISFSRPSRIEKSRRARKSSQTILEKEEATTSENSNLVSTDEPHLGGVLAAADVGGKQDATNYNSIFANRFAAFDELLSILKTKFACRVLFEETLVLPKVGRSRLHLCKDGSPRVIKAVGVQRNGSEFVLLEVDASDGVKMLSTKVLSGVDSETWRNDFEKIRRGVVKSSLNWPNSLFDQLYGQDGHRGVNHPKGLGELQVSREDMEGWAERVVREQFTH

Variants of: B1
Details: with dpo3b_ecoli dnaN

| Variant | effect of a mutation on the interaction |
| --- | --- |
| L131A | decreasing interaction |
| F130A | decreasing interaction |
| Q122A | decreasing interaction |

Next, values leading:

| effect of a mutation on the interaction | Variant |
| --- | --- |
| decreasing interaction | L125A |
| decreasing interaction | L123A |
| decreasing interaction | L129A |
